Where a chain is given by its changes, count along the chain named. In names and notes the source's numbering stands. Where two headings read alike, the source gives them in different places. Non-standard residues stand in square brackets, D forms with d. No end group written: not given here.
B1: FGF21 (ligand)
chain: HPIPDSSPLLQFGGQVRQRYLYTDDAQQTEAHLEIREDGTVGGAADQSPESLLQLKALKPGVIQILGVKTSRFLCQRPDGALYGSLHFDPEACSFRELLLEDGYNVYQSEAHGLPLHLPGNKSPHRDPAPRGPARFLPLPGLPPALPEPPGILAPQPPDVGSSDPLSMVGPSQGRSPSYAS
B2: FGF21 D164A (ligand)
chain: B1 chain with D164A
B3: FGF21 P171A (ligand)
chain: B1 chain with P171A
B4: FGF21-19 K194A (ligand)
chain: HPIPDSSPLLQFGGQVRQRYLYTDDAQQTEAHLEIREDGTVGGAADQSPESLLQLKALKPGVIQILGVKTSRFLCQRPDGALYGSLHFDPEACSFRELLLEDGYNVYQSEAHGLPLHLPGNKSPHRDPAPRGPARFLPLPGLPPALPEPPGILAPQPLETDSMDPFGLVTGLEAVRSPSFEA

How the values were obtained:
Test in all cases: cell-based or functional assay
[1] = target: T1, human Klotho β (human, UniProt Q86Z14 1-1044)
T1 sequence (looked up): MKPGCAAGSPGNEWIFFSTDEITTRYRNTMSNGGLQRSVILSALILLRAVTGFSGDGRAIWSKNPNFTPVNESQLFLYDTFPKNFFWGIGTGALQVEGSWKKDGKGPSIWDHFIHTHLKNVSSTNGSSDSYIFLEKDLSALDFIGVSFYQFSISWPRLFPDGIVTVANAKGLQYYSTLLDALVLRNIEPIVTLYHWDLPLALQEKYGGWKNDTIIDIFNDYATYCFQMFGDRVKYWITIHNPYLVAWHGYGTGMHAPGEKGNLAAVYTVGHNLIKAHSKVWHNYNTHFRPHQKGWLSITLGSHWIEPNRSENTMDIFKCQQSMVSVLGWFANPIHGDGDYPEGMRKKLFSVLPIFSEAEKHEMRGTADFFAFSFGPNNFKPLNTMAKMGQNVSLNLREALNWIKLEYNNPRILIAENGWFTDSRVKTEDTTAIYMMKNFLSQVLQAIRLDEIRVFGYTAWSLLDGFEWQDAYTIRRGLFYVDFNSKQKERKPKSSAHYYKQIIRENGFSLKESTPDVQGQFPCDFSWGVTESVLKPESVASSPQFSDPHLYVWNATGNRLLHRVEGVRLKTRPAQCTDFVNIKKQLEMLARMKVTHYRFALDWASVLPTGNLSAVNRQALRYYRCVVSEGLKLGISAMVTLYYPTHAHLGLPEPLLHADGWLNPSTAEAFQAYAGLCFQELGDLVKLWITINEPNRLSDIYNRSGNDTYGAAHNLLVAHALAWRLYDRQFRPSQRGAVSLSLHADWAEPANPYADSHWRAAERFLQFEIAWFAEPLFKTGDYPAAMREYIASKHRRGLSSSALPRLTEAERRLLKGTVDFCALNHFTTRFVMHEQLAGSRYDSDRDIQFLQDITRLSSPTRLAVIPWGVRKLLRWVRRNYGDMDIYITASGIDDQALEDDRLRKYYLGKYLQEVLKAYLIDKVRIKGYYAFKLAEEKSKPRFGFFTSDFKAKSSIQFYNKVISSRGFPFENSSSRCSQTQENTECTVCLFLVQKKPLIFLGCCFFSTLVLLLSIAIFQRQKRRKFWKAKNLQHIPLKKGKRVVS

[2] = target: mouse Klotho β (mouse) (UniProt Q99N32)
Sequence of mouse Klotho β (mouse) (Q99N32 whole entry): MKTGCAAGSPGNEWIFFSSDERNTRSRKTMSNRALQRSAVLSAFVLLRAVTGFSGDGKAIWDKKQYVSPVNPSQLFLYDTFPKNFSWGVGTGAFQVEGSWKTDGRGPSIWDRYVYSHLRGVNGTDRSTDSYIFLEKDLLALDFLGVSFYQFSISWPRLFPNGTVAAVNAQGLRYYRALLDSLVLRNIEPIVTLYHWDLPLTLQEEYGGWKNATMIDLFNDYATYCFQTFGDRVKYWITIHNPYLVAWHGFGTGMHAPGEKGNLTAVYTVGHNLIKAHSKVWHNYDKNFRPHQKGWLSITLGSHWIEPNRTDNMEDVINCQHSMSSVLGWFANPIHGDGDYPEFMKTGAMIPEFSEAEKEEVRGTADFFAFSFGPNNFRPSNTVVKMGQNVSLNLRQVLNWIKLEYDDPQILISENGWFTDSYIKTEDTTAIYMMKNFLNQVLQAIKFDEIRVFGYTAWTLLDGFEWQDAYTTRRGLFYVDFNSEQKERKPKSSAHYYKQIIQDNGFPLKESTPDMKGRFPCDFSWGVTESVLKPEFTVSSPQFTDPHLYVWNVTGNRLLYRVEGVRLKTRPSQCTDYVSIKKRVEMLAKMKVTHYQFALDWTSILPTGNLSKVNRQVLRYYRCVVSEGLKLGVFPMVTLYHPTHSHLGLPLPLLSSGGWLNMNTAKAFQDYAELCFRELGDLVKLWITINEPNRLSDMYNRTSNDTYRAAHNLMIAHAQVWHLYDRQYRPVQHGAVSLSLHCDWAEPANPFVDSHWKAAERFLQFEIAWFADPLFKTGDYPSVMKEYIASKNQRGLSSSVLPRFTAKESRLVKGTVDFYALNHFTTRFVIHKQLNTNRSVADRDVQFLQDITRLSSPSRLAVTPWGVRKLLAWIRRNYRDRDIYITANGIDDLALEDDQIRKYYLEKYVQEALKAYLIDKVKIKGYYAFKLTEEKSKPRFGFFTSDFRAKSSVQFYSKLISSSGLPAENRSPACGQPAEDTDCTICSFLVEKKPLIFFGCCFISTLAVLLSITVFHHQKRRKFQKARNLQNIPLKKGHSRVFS

[3] = target: T1, human Klotho β; remark: listed apart in the source
[4] = target: T1, human Klotho β; remark: listed apart in the source
[5] = target: T1, human Klotho β; remark: listed apart in the source
[6] = target: T1, human Klotho β; remark: listed apart in the source
[7] = target: T1, human Klotho β; remark: listed apart in the source
[8] = target: T1, human Klotho β; remark: listed apart in the source

| Molecule | % max activity of antagonism of FGF21 (pErk1/2, 293 HEK hKLB cells) [3] | IC-50 of antagonism of FGF21 (pErk1/2, 293 HEK hKLB cells) [3] | IC-50 of antagonism of FGF21 (pErk1/2, 293 HEK hKLB cells) [6] | IC-50 of antagonism of FGF21 (pErk1/2, 293 HEK hKLB cells) [7] | also measured |
| --- | --- | --- | --- | --- | --- |
| FGF19 (from UniProt O95750 25-216) (ligand) |  |  |  |  | % maximal activity, Erk1/2 phosphorylation in 293T HEK hKLB cells (FIG. 9B) [1]: 27%; EC-50 of Erk1/2 phosphorylation in 293T HEK hKLB cells (FIG. 9B) [1]: 148 nM; potency (agonism) in cells that overexpressed human KLB (FIG. 11A) [1]: 65.8; potency (agonism) in cells that overexpressed mouse KLB (FIG. 11B) [2]: 25.7 |
| PPDVGSSDPLSMVGPSQGRSPSYAS-NH2 [FGF21 157-181] | 100% | 168 nM | 0.16 µM |  | % Activity vs C25 [4]: 100%; IC50 of antagonism of FGF21 (assay of Example 1) [4]: 283 nM; IC50 of antagonism of FGF21 (assay of Example 1) [5]: 182 nM |
| PPDAGSSDPLSMVGPSQGRSPSYAS [FGF21 25mer A4] | 63.6% | 5.93 µM |  | 2.69 µM |  |
| PPDVGSSDPL[dS]MVGPSQGRSPSYAS-NH2 [FGF21 D11] |  |  |  |  | % Activity vs C25 [4]: 596%; IC50 of antagonism of FGF21 (assay of Example 1) [4]: 57.3 nM; IC50 of antagonism of FGF21 (assay of Example 1) [5]: 19.9 nM |
| PPDVGSSDPLSMVGPSQG[dR]SPSYAS-NH2 [FGF21 D19] |  |  |  |  | % Activity vs C25 [4]: 271%; IC50 of antagonism of FGF21 (assay of Example 1) [4]: 152 nM; IC50 of antagonism of FGF21 (assay of Example 1) [5]: 52.5 nM |
| PPDVGASDPLSMVGPSQGRSPSYAS [FGF21 25mer A6] | 89.2% | 2.65 µM |  | 2.44 µM |  |
| PPDVGSSDPL[dS]MVGPSQG[dR]SPSYAS-NH2 [FGF21 D11D19] |  |  |  |  | IC50 of antagonism of FGF21 (assay of Example 1) [5]: 14.1 nM |
| LETDSMDPFGLVTGLEAVRSPSFEA [FGF19 A26] |  |  |  |  | IC50 of antagonism of FGF21 (assay of Example 1) [5]: 17.9 nM |
| LETDSMDPF[dS]LVTGLEAVRSPSFES-NH2 [FGF19 S10] |  |  |  |  | IC50 of antagonism of FGF21 (assay of Example 1) [5]: 194 nM |
| LETDSMDPF[dS]LVTGLEAVRSPSFEA-NH2 [FGF19 S10A26] |  |  |  |  | IC50 of antagonism of FGF21 (assay of Example 1) [5]: 10.9 nM |
| PPDVGSSDPASMVGPSQGRSPSYAS [FGF21 25mer A10] | 76% | 3.32 µM |  | 2.75 µM |  |
| B1 |  |  |  |  | % maximal activity, Erk1/2 phosphorylation in 293T HEK hKLB cells (FIG. 9A) [8]: 100% |
| B2 |  |  |  |  | % maximal activity, Erk1/2 phosphorylation in 293T HEK hKLB cells (FIG. 9A) [8]: 6% |
| B3 |  |  |  |  | % maximal activity, Erk1/2 phosphorylation in 293T HEK hKLB cells (FIG. 9A) [8]: 100% |
| B4 |  |  |  |  | potency as agonist relative to native FGF21 [8]: ~5 fold |
| PPDVGSSDPLSMAGPSQGRSPSYAS [FGF21 25mer A13] | 87.9% | 2.11 µM |  | 4.6 µM |  |
| PPDVGSSDPLSMVAPSQGRSPSYAS [FGF21 25mer A14] | 97.7% | 136 nM | 0.13 µM |  |  |
| PPDVGSSDPLSMVGASQGRSPSYAS [FGF21 25mer A15] | 93.9% | 134 nM | 0.12 µM |  |  |
| PPDVGSSDPLSMVGPAQGRSPSYAS [FGF21 25mer A16] | 101% | 120 nM | 0.11 µM |  |  |
| PPDVGSSDPLSMVGPSAGRSPSYAS [FGF21 25mer A17] | 99.7% | 139 nM | 0.13 µM |  |  |
| APDVGSSDPLSMVGPSQGRSPSYAS [FGF21 25mer A1] | 100% | 33 nM | 0.39 µM |  |  |
| PPDVGSSDPLSMVGPSQARSPSYAS [FGF21 25mer A18] | 103% | 139 nM | 0.15 µM |  |  |
| PPDVGSSDPLSMVGPSQGASPSYAS [FGF21 25mer A19] | 100% | 102 nM | 0.1 µM |  |  |
| PPDVGSSDPLSMVGPSQGRAPSYAS [FGF21 25mer A20] | 73.5% | 3.23 µM |  | 2.21 µM |  |
| PPDVGSSDPLSMVGPSQGRSASYAS [FGF21 25mer A21] | 70.5% | 2.24 µM |  | 2.57 µM |  |
| PPDVGSSDPLSMVGPSQGRSPAYAS [FGF21 25mer A22] | 78.5% | 752 nM |  | 0.67 µM |  |
| PPDVGSSDPLSMVGPSQGRSPSAAS [FGF21 25mer A23] | 73.6% | 3.98 µM |  | 4.16 µM |  |
| PPDVGSSDPLSMVGPSQGRSPSYAA [FGF21 25mer A25] | 99% | 45 nM | 0.06 µM |  |  |
| PADVGSSDPLSMVGPSQGRSPSYAS [FGF21 25mer A2] | 98.5% | 137 nM | 0.62 µM |  |  |
| PPAVGSSDPLSMVGPSQGRSPSYAS [FGF21 25mer A3] | 87.8% | 2.28 µM |  | 1.5 µM |  |

From patent US20190142963A1 (INDIANA UNIVERSITY RESEARCH AND TECHNOLOGY, published 2019)
